In publication PMC6755086:
Several values for one entry are separate records, joined by “and”; a condition that tells them apart may be missing. Equal values may be shown once.

Target: Burkholderia pseudomallei Class 2 OLD protein, full-length (Bp^FL, residues 1-594) (Burkholderia pseudomallei)
Test: SEC-MALS

Burkholderia pseudomallei Class 2 OLD protein, full-length (Bp^FL, residues 1-594) (enzyme)
stoichiometry N: 2 and 4
